Measured values published in article PMC5264654.

Key:
[1] = molecular target: GST-Fen1 PIP box fusion (UniProt P39748); assay: SPR; ~1000 RU GST-PIP fusion bound to a CM5 chip (acetate pH 5.5), GST as control lane; His-S-PCNA as analyte, 10 point 2x dilution series from 12 μM; equilibrium of binding, steady state affinity fit; HBS-EP (0.01 M HEPES pH 7.4, 0.15 M NaCl, 3 mM EDTA, 0.0005% IGEPAL) with 1 g/l BSA; Biacore T200
[2] = molecular target: GST-p21 PIP box fusion (UniProt P38936); assay: as above
[3] = molecular target: '3tag' PCNA^S228I (human) (UniProt P12004); assay: SPR; reverse orientation: ~1000 RU biotinylated 3tag-PCNA on an SA chip; GST-PIP fusion as analyte, single cycle kinetics (Cdt1 highest 44.5 μM, p21 highest 27.9 μM); HBS-EP with 1 g/l BSA

Sequence of UniProt P38936 (P38936 whole entry, the tested form may be a part): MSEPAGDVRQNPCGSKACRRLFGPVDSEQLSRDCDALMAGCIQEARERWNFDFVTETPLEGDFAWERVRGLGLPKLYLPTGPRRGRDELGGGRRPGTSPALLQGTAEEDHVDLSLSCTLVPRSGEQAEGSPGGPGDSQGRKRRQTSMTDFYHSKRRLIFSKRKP
Sequence of UniProt P39748 (P39748 whole entry, the tested form may be a part): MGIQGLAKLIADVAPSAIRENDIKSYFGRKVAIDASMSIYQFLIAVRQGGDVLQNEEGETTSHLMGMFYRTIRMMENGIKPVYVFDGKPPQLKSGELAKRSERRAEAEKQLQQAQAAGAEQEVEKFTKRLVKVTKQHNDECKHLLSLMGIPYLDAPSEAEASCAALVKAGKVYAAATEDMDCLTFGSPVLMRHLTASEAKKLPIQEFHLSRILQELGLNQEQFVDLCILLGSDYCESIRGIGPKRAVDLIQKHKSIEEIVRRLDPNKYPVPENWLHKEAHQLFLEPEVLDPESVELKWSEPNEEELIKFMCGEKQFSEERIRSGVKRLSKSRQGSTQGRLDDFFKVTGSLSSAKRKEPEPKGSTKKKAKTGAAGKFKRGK

His-S-tagged PCNA^WT (from UniProt P12004 1-261) (natural protein)
Kd [1]: 1.1 µM
Kd [2]: 1.8 µM

His-S-tagged PCNA^S228I (from UniProt P12004 1-258) (natural protein)
Kd [1]: 15 µM
Kd [2]: 3.7 µM

GST-p21 PIP box fusion (from UniProt P38936 1-164) (domain or fragment)
reduction of the affinity against PCNA^WT [3]: 10%
